Molecular target: rat GLP-1 receptor (rat) (UniProt P32301)
Sequence (P32301 22-463): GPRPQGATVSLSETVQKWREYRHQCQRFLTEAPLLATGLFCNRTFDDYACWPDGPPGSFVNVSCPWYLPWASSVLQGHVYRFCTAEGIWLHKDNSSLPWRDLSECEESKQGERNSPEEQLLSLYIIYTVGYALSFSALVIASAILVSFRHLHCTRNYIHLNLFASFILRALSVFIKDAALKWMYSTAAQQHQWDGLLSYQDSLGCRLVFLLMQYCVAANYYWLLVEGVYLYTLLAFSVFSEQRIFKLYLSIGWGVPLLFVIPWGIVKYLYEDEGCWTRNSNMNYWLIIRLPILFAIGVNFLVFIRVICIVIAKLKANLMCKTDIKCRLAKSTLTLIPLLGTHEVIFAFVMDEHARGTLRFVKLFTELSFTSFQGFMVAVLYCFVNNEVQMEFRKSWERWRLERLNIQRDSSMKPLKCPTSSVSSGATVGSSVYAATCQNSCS

Question: Which EC50, cAMP in 6–23 clone 6 cells (GLP-1 Receptor Functional Assay, 0.1% BSA) does the source give for [Leu^14]exenatide (peptide) here?
Answer: 6 pM
